Results as given in the DeepSol protein solubility set.

assay: soluble on expression in E. coli; label from the status in PepcDB or PDB records

Sequence	soluble on expression in E. coli
MGSDKIHHHHHHMAEPSGLLKKGEKMDSMLCTKRTLLSDEFQHWARLFMKTGKLHRKFWEWCFIAQALKEHDMLAPGRIGLGFGVGEEPLSSCFASFGASILATDLDLQNSSVAGWTKTSQHADNKGKLNKLGICPGWEFENLVEFEFANMNSIPKRYTGKFDFVWSSCSLEHLGSIEKGVTFILNSINCLKPGGVAVHTTEFNVSPNSDTIETGPTVLFRRKEIEDIIERVRSFGCRAHINWDHGDLPEDYYIDIPPYSHNPHLKLRISKYVVTSIGLVISK	not soluble
MGSDKIHHHHHHMAFRVILIENEVTIKVKLNNLIITKCGEDIWIPLDDISMIVLDNLASNLSTRLMCQLAEQGIGLMLYNQQHLPTGFYSAYDNHSRASKVIGFQIDKEQDYYGKLWQQIVKIKIENQAKAYQIMTRDSDGPEKIIEFSKNILIGDKSNREAHAAKVYFNLLMGTSFSRGNEDILLNSGLDYGYAVIRGYIARACVGYGLNTQIGIHHKSEYNRFNLVDDLMEPLRPIVDIVAYNSMKNDKYFTPEHRRKLVSILNMKIMYREKKMYMCNMIENYIEQYASLIMKRTDNIVFPDVYNLIGEEYG	not soluble
MGSDKIHHHHHHMAGYNTYVVGKWHVGTKSVPEDYGIKGHNFDGYGYPGSGVYKNLVFNQPPTHSNRYKEWLEEKGYEIPEVSRAYFGDNPHLRVQELCGLLSGAKDQTIPYFIIDEAKKYIQESLDEGKPFFAWINFWGPHTPCIVPEPYYSMYRKEDVVLDKSFFTPLEGKPDHFRTISKMWGMWEASEDHWKEVITKFWGYITLIEDDNLVYLHDLTSTVFDLANQKVPESFEGQSVLPIMRQHQDNQRKGVLGQLAGHFVYFEQRMWRRKDYKLVFNATDVCELYNIRNDPEEMHNLFYDPQYNRIKKEMLEEMRAEMKRLNDPLENWVYRIIDEI	not soluble
MGSDKIHHHHHHMAIGLSTYAFFWRASSRVPNPLGLAAMLEQTAESGAGVFQICDYAAVEALSPAELEKLRQRAVDLGIQLELGTRGLATDHLTRYLTMARALDVRFIRTMFNSATHKPTQDEALALLRCVLPEFEQYNIQLGLETYEQVKTRDVLAVVDAIDSPALGICLDPGNCVAALEYPHEVIELTASRVVNLHIKDFAFARQEGWVGFTYSGCLLGTGLLDYDALHQTIRPNERNINQIVEHWLPWQASAEETCRLEDAWTRHSLNYLYTRNPYANRSSHIL	not soluble
MGSDKIHHHHHHMAILERKIIHEIDTSCSHIIYPQFVLPRHKHAEYEIMLFTQGSGKQFVGEGVADFQEGDIALIGSNVPHLHLCNSKLNPVANTVCSAGEALQFLPDIFPVHIENLPDYQEIYRLLRKSQYGVRFYDKGLYDEVKELFQEMDLLKHTNRLITILRILGRLTECRNIKLLSDVAYNGSNRLLEVNEPVNKVYTYLFNHFKEKVLLQEVADYVKQNPSALCRYFKQRTDKSIFQCLAEIRIEHACKLLSYSNLSVSQIAFESGFNSVPYFIKQFQSITEKTPGEYRELIGR	not soluble
MGSDKIHHHHHHMAKERALTLEALRVMDAIDRRGSFAAAADELGRVPSALSYTMQKLEEELDVVLFDRSGHRTKFTNVGRMLLERGRVLLEAADKLTTDAEALARGWETHLTIVTEALVPTPAFFPLIDKLAAKANTQLAIITEVLAGAWERLEQGRADIVIAPDMHFRSSSEINSRKLYTLMNVYVAAPDHPIHQEPEPLSEVTRVKYRGIAVADTARERPVLTVQLLDKQPRLTVSTIEDKRQALLAGLGVATMPYPMVEKDIAEGRLRVVSPESTSEIDIIMAWRRDSMGEAKSWCLREIPKLFNGK	not soluble
MGSDKIHHHHHHMAKGNKIPLTFHTYQDAATGTEVVRLTPPDVICHRNYFYQKCFFNDGSKLLFGAAFDGPWNYYLLDLKEQNATQLTEGKGDNTFGGFLSPNDDALYYVKNTRNLMRVDLTTLEEKTIYQVPDDWVGYGTWVANSDCTKMVGIEIKKEDWKPLTDWKKFQEFYFTNPCCRLIRVDLVTGEAETILQENQWLGHPIYRPGDDNTVAFCHEGPHDLVDARMWFINEDGTNMRKVKEHAEGESCTHEFWVPDGSAMIYVSYLKDDTNRYIRSIDPVTLEDRQLRVMPPCSHLMSNYDGTLLVGDGSDAPVDVQDDGGYKIENDPFLYVFNLKTGKEHRIAQHNTSWEVLEGDRQVTHPHPSFTPDNKQVLFTSDVDGKPALYLAKVPDSVWN	not soluble
MGSDKIHHHHHHMAKHPLVMALAKVIIAAAWADGELSLDEVNDLKRLLAELGQTGGQFALTADDWAELEIYLYSPVEAAERARLIADLRDLIITPGQQQLVLQAIERLLIADRVLTPVEREVAQEIQRALTQDSQSLLFQIGRAFRLALGIRAGGPNREDLLPEFMRNRIYYALQIRLGQHIDEFGLDRDELHVLTLAGGLLARVAYVDKQVTPAEHDRIVAILKEWWQLDDTQAALVAEVALDESAASLDFFRLTKAFADATTVERRQRFLDALFAVALADGELSGAESAEISRITAAINLPHDSFVAARLRLPRQPGKRL	not soluble
MGSDKIHHHHHHMAKIKHGFSGQRLIVYPFYVIEQALNNPLVADLVVHSMGYFPKAESHYIDRASGCGEYLLIYCTKGEGWYVLDGKRYVVPENHFFILPAEKPHQYGSSEHDPWYIYWAHFKGKKAKYISDQLQGVIPIDMDDNSRIGDRIAFFDELLNVLESGTDEATVNYVNLSFNHLIASFLYVKTYREAKFSKSKAENTFFISLATHFMTENLENKLTLKELASHFGYSESYMYRLFFKETGYAPMNYFLHMKIDRACQLLLHTNMKINQVALKLGFDDPYYFSRIFKKIVGTSPKDYRHSLPK	not soluble
MGSDKIHHHHHHMAKVRKEDKLPLRMKQLGKIYRLIEQFEEISRIDLSKLSQLAPATITSLTRELIEKKLVIERAVQNTENRGRPAVGLCVSPFYWQSLCATLTYDHFDILLCELDGTTIAQEVYPLDLSDLSSLEQMLPCYFEDFLSKVGTKLSRPITFSIAVAGKLHHLSGFLQRLGEIELNVDLTSLFAGYFDIPIIVTEYFETWLLAESTLGSVIGYDDVIFLQIDDVINLSVLSKGVILQSDHKTCMNIDQIIVPRLYPMQDKINQHLFELERYQIHNQLTYKAFCQFIDLYYPNNNLINTTEKINFLCKKAQLQDPLALEILANIADIIAYILSNLVNLFSPEKIMFTSRLLSVKHVFLNQINQRLAHYLHNSKICEVMTSQYEWNSHEVIAAAIKQKIYDGSLLVYMEKY	not soluble
MGSDKIHHHHHHMALDQDGIQKVQKISTGIERLDDLFYGGFDRNDNVVVRGNNFSQKRSFIYSFIKKSANSGIGVVLVDFDFPSEGIMADLVRSGTNTDMVHILDGFAKPFQISAPSNTEMLDDPGNIPSVLKQITSTVQKMDEYVFVMLSATRYLIAKDQNTDRFFVQLINMNRKRSLVSIYAVDDFVPEDRSEWFAYLMDSALHFRNAGARAYLRVLTLKRIRTKEWVRIYPEEGTFTLGSFNVERIK	not soluble
MGSDKIHHHHHHMALEDKDLRSIQEVRNLIESANKAQKELAAMSQQQIDTIVKAIADAGYDAREKLAKMAHEETGFGIWQDKVIKNVFASKHVYNYIKDMKTIGMLKEDNEKKVMEVAVPLGVVAGLIPSTNPTSTVIYKTLISIKAGNSIVFSPHPNALKAILETVRIISEAAEKAGCPKGAISCMTVPTIQGTDQLMKHKDTAVILATGGSAMVKAAYSSGTPAIGVGPGNGPAFIERSANIPRAVKHILDSKTFDNGTICASEQSVVVERVNKEAVIAEFRKQGAHFLSDAEAVQLGKFILRPNGSMNPAIVGKSVQHIANLAGLTVPADARVLIAEETKVGAKIPYSREKLAPILAFYTAETWQEACELSMDILYHEGAGHTLIIHSEDKEIIREFALKKPVSRLLVNTPGALGGIGATTNLVPALTLGCGAVGGSSSSDNIGPENLFNIRRIATGVLELEDIRKEENQATPELSVDADALIQSLVEKVLAELK	not soluble
MGSDKIHHHHHHMALGHRVKEAREFRSLKQGELAELIGWTQQALSTLENRDSKKSSYSAQISKALDIDIDWLISGAGEMINTKKEAKSAKKLIKYVPVKGSAQMGDNGFWSELDYMGAGGDGYLEVNNASDSAYVIRAVGDSMFPAIRSGWYIVFDPSREACSGEYVHIVLKDGRNMVKEYVSCQHGIVNLISVNGMERISFNCEDVDVLNPFVEIQPPSRLRDDLDLFDTKCEEM	not soluble
MGSDKIHHHHHHMALIIAGERSGVGKTTTTLTLLAALKARQASVQSFKVGPDYIDPMFHRFVTGRDCRNLDPILTDEDYVQHCFQQHSQTADYTLVEGVMGLFDGLTGKTDTASTAHIARILNLPILLVLNCSSTARSIAAIAYGYQNFDSRLKIAGLVLNRVGSDRHLELLKDALEPLEIPILGVLRRQDEIQIPDRHLGLIPTSELPHLQSVIDRLAVLGQQCFDWNRLEPLLSNSDLNSTAFKSTTPSISLKSSVPIAIARDRAFNFYYADNFDLLRAAGAELIEWSPLQDRQLPAGVQGLYLGGGFPEVFAAELSDNLLARQAVQTAITQGIPCYAECGGLMYLCQHIIDFEQTQYPMVGAIAATAQMGSRLTLGYREATAQQASPLLQKGQVVWGHEFHRSSLREPIAQPLFQLQNFDGSLHYGEGYSQPNLHASYLHLHFGGKPWLIQNFLQACQQATALSR	not soluble
MGSDKIHHHHHHMALLEVTDLSQSFADRKLYDDANFTLERADHMGIVGQNGAGKSTLIKILTGQILPLSGQIKWQRNVRTGYLDQYADIPAGMTLYAFLKTAFQRLYDLDAQMQQLYADYAEKMDDQLLERAGRIQETLEANNFYDVETEMERVITGLGLDEIGRDHVISEMSGGQRSKIILAKLLLENPDVIILDEPTNYLDTAHISWLEDYLNGFEGAVMVISHDYDFLQQVTNCICDVAFGKIIKYRGDFKAAMRQKEARKEAQLKAFEKQQVVIEKAEKFIRKNKAGSKSTMAKSREKMLSHLDRVDPPSENEHAKFAFPYLDTGSQNALSVTKLSVGYGKPLLEPVTFTMTNGEKLAFKGFNGVGKSTLIKSILGVIPALSGKSDFSPSAKINYFNQDLEWDNPQLTPLQTIQNEYPTMLPKTIRTKLAKCGINAANAMKPMHLLSGGEQTKVKLALLELVPSNFLIMDEPTNHLDDETKEGLKRALQAFQGNLILVSHESSFVNGWVDKELNVEKLSLKERQG	not soluble
MGSDKIHHHHHHMALVALPGGGAVDPAFWSVQAAEDFEQEIVDQYALAMAAAGLSDSHIRNTRSTIIEFARSVTGPLWAATCQDADRFLAEQRRLGRSVSTRAGKAGTLALFYEFMISRYQGRIHRLTGVLVEQPIDEFNRQAGASLGKVRVPPSDAEIDAFFTCWRHSIPQARKYLPAARDYFAASLWRRLGLRITETVMLDIRDWRPDLGGFGKLHVRYGKGAHGRGPKPRLVPAINGAAELIDWWLGDVRHRYGEDWADPDAPLLPSERFDRELGRCGRVGGNALRRSLGLQVDQWLPAWSGRMTPHVLRHYCASSLYGAGMDIKALQELLGHQWLSTTSGYIHVRSEHVEQAWKNANERVESRFATTQKEG	not soluble
MGSDKIHHHHHHMANLLTINHLSYSRNLQLILKDLNLELPYGQIVGLLGTNGAGKTTLMRLIAGNYIDRKNSISINTETNSAVRKSLVSFTEQVGGWSGHPRIFKIGNFYDALYEDFNLTTFNQLLSNLNLSPDQRVNQLSKGNFRKLVIAVTLARQTDLYLLDEPFDGIDSMTRKKIISSIIQWKPENATVLVSDHHVGDIANLLDQVVIIKDQHVAAQEAADTIRETLGKDIETYYEDFYREEL	not soluble
MGSDKIHHHHHHMAPDTSMSSRDALPPLACLRAFEAAARHASFTQAGSELHLTQSAVSRQIKRLEDDLGRPLFERHYEGLRLTPAGERYFGVVQRLLRDLRDETARLRRRGDDRQLTLASSPTIASIWLARQLPDFQRAHPHIEIRILTVEDPHRLDLAEFDLGIYYHVPHEVDPPGLDAEAIFSHEEVAAVCSPAYLARHGDIRDADDLLARHTLMVVEDHYHDWLTWEGWYQAQNLAWRTPEHSLRANSFQLLMNAILAGQGVTLGWTRLLAADLAQHNLVQALPHTLPSRGRLSLLTPQHRHLTEPMRAFRAWVLGPA	not soluble
